B1: SYNGAP1 (natural protein, UniProt F6SEU4 1-1340, looked up)
chain: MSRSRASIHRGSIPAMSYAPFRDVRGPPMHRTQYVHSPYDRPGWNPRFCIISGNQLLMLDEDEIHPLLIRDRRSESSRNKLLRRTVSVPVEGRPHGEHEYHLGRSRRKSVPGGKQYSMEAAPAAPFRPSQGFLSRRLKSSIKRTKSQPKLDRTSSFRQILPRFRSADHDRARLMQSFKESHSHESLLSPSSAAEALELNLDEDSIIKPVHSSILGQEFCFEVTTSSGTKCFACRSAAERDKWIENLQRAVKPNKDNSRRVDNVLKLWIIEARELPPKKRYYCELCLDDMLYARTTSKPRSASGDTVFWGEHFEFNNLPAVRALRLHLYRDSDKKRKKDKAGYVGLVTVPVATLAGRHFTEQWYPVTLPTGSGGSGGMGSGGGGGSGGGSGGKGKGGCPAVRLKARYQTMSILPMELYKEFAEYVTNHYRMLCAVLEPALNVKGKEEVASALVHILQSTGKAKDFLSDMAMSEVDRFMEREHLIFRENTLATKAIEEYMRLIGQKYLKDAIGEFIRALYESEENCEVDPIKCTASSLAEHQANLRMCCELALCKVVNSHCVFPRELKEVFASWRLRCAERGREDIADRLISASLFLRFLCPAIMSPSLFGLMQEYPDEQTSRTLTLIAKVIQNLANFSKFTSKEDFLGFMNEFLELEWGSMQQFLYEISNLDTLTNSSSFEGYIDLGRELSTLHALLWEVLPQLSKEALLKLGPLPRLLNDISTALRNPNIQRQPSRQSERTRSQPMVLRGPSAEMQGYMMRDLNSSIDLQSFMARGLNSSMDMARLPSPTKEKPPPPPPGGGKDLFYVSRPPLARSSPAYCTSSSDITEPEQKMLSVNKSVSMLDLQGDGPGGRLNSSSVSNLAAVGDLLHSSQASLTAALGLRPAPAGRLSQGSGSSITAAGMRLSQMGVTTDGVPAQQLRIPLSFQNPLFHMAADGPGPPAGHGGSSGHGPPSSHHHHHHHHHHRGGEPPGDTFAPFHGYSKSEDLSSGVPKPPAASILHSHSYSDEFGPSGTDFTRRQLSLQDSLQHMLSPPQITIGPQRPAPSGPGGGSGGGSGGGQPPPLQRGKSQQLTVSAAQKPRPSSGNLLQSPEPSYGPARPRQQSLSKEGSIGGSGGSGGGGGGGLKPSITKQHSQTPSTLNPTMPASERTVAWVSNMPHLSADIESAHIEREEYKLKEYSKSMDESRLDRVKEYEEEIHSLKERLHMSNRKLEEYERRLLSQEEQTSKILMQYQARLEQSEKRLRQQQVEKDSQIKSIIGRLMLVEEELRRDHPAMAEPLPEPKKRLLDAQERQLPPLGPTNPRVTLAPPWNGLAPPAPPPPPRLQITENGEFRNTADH
B2: GRM5 (receptor, UniProt Q3UVX5 19-1203, looked up)
chain: SAQSSERRVVAHMPGDIIIGALFSVHHQPTVDKVHERKCGAVREQYGIQRVEAMLHTLERINSDPTLLPNITLGCEIRDSCWHSAVALEQSIEFIRDSLISSEEEEGLVRCVDGSSSFRSKKPIVGVIGPGSSSVAIQVQNLLQLFNIPQIAYSATSMDLSDKTLFKYFMRVVPSDAQQARAMVDIVKRYNWTYVSAVHTEGNYGESGMEAFKDMSAKEGICIAHSYKIYSNAGEQSFDKLLKKLRSHLPKARVVACFCEGMTVRGLLMAMRRLGLAGEFLLLGSDGWADRYDVTDGYQREAVGGITIKLQSPDVKWFDDYYLKLRPETNLRNPWFQEFWQHRFQCRLEGFAQENSKYNKTCNSSLTLRTHHVQDSKMGFVINAIYSMAYGLHNMQMSLCPGYAGLCDAMKPIDGRKLLDSLMKTNFTGVSGDMILFDENGDSPGRYEIMNFKEMGKDYFDYINVGSWDNGELKMDDDEVWSKKNNIIRSVCSEPCEKGQIKVIRKGEVSCCWTCTPCKENEYVFDEYTCKACQLGSWPTDDLTGCDLIPVQYLRWGDPEPIAAVVFACLGLLATLFVTVIFIIYRDTPVVKSSSRELCYIILAGICLGYLCTFCLIAKPKQIYCYLQRIGIGLSPAMSYSALVTKTNRIARILAGSKKKICTKKPRFMSACAQLVIAFILICIQLGIIVALFIMEPPDIMHDYPSIREVYLICNTTNLGVVTPLGYNGLLILSCTFYAFKTRNVPANFNEAKYIAFTMYTTCIIWLAFVPIYFGSNYKIITMCFSVSLSATVALGCMFVPKVYIILAKPERNVRSAFTTSTVVRMHVGDGKSSSAASRSSSLVNLWKRRGSSGETLRYKDRRLAQHKSEIECFTPKGSMGNGGRATMSSSNGKSVTWAQNEKSTRGQHLWQRLSVHINKKENPNQTAVIKPFPKSTESRGQGAGAGGGSGPGAAGAGSAGCTATGGPEPPDAGPKALYDVAEAEERFPAAARPRSPSPISTLSHLAGSAGRTDDDAPSLHSETAARSSSSQGSLMEQISSVVTRFTANITELNSMMLSTAAAPGPPGTPICSSYLIPKEIQLPTTMTTFAEIQPLPAIEVTGGAQPATGPSPAQETPAGAEAAPGKPDLEELVALTPPSPFRDSVDSGSTTPNSPVSESALCIPSSPKYDTLIIRDYTQSSSSL
B3: NTRK3 (receptor)
chain: not shown

Biological target: MET receptor tyrosine kinase (mouse (endogenous in neocortical …, UniProt P16056 25-1379))
Assay: co-IP

Compared with B1, B2 is higher in “mean fold change (HGF/PBS) of binding” value: 0.63 fold for the first, 1.35 fold for the second.

For B3, the “mean fold change (HGF/PBS) of binding” value was 0.95 fold.

From PMC5001930 (Biological psychiatry, 2016)
